Experimental data reported in the Human Domainome abundance scans (Beltran et al. 2025).
± gives the uncertainty stated by the source.

B1: PDZ and LIM domain protein 2, residues 284 to 339; numbered along this chain, Q96JY6 (parent)
chain: HTCEKCSTSIANQAVRIQEGRYRHPGCYTCADCGLNLKMRGHFWVGDELYCEKHAR

Variants of: B1
Experiment: abundance fitness (aPCA) (normalised: wild type 0, dead -1); higher = more abundant; growth selection in yeast, the domain comes from the species named
Details: Homo sapiens

Compared with HTCEKCSTSIANQAVRIQEGRYRHPGCYTCADCGLNLKMRGHFHVGDELYCEKHAR [W44H], HTCEKCSTSIANQAVRIQEGRYRHPGCYTCADCGLNLKMRGHFKVGDELYCEKHAR [W44K] is lower in abundance fitness: 0.15 ± 0.084 for the first, -0.208 ± 0.14 for the second.

HTCEKCSTSIANQAVRIQEHRYRHPGCYTCADCGLNLKMRGHFWVGDELYCEKHAR [G20H] and HTCEKCSTSIANQAVRIQEGRYRHPGCYTCADCGLNLKMRGMFWVGDELYCEKHAR [H42M] are within error of each other in abundance fitness: -0.119 ± 0.067 for the first, -0.162 ± 0.16 for the second.

HTCEKCSTSIANQAVRIQEGRYRHPGCYTCADCGLNLKMRGCFWVGDELYCEKHAR [H42C] and HTCEKCSVSIANQAVRIQEGRYRHPGCYTCADCGLNLKMRGHFWVGDELYCEKHAR [T8V] are within error of each other in abundance fitness: -0.005 ± 0.14 for the first, 0.189 ± 0.072 for the second.

HTCEKCSTSIANQAVRIQEGRYWHPGCYTCADCGLNLKMRGHFWVGDELYCEKHAR [R23W] and HTCEKCSTSIANQAVRIQEGRYRHPGCYTCADCGLNLKMRGHFWVGDELYCKKHAR [E52K] are within error of each other in abundance fitness: -0.431 ± 0.21 for the first, -0.226 ± 0.095 for the second.

Compared with HTCEKCSTSIANQAVRIQEGRYRHPGCYTCADCGLNLKMRGHFWVGDELYCRKHAR [E52R], HTCEKCSTSIANQAVRIQEGRYRHPGCYTCADCGLNLKMRGHFWVGDELYVEKHAR [C51V] is lower in abundance fitness: -0.256 ± 0.064 for the first, -1.17 ± 0.15 for the second.

HTCEKCSTSIANQAVRIQEGRYRHPGCYTCADCGLNLKMRGHFWVGDELYDEKHAR [C51D] and HTCEKCSTSIANQAVRIQEGRYRHPGCYTCADCGLNLKMRGHFWVGDELYSEKHAR [C51S] are within error of each other in abundance fitness: -0.593 ± 0.27 for the first, -0.609 ± 0.12 for the second.

HTCEKCSTSIANQAVRIQEGRYRHPGCYTCADCGLNLKMRGHFWVGDELYPEKHAR [C51P] and HTCEKCSTSIANQDVRIQEGRYRHPGCYTCADCGLNLKMRGHFWVGDELYCEKHAR [A14D] are within error of each other in abundance fitness: -0.614 ± 0.14 for the first, -0.33 ± 0.2 for the second.

Compared with HTCEKCSTSIASQAVRIQEGRYRHPGCYTCADCGLNLKMRGHFWVGDELYCEKHAR [N12S], HTCEKCSTRIANQAVRIQEGRYRHPGCYTCADCGLNLKMRGHFWVGDELYCEKHAR [S9R] is lower in abundance fitness: -0.028 ± 0.073 for the first, -0.34 ± 0.083 for the second.

Compared with HTCEKCSTYIANQAVRIQEGRYRHPGCYTCADCGLNLKMRGHFWVGDELYCEKHAR [S9Y], HTCEKCSTSIANQAVCIQEGRYRHPGCYTCADCGLNLKMRGHFWVGDELYCEKHAR [R16C] is higher in abundance fitness: -1.02 ± 0.31 for the first, 0.32 ± 0.091 for the second.

HTCESCSTSIANQAVRIQEGRYRHPGCYTCADCGLNLKMRGHFWVGDELYCEKHAR [K5S] and HTCEGCSTSIANQAVRIQEGRYRHPGCYTCADCGLNLKMRGHFWVGDELYCEKHAR [K5G] are within error of each other in abundance fitness: -0.108 ± 0.096 for the first, -0.036 ± 0.057 for the second.

HTCEKCSTSIANQAVRIQEGRYRHPGCYTCADCGLNLKMGGHFWVGDELYCEKHAR [R40G] and HTCEKCSTSIANQAVRIQEGRYRHPGCYTCADCGLNLKMHGHFWVGDELYCEKHAR [R40H] are within error of each other in abundance fitness: 0.219 ± 0.061 for the first, 0.274 ± 0.11 for the second.

HTCEKCSTSIANQAVRIQEGRYRHPGCMTCADCGLNLKMRGHFWVGDELYCEKHAR [Y28M] and HTCEKCSTSIANQAVRIQEGRYRHPGCVTCADCGLNLKMRGHFWVGDELYCEKHAR [Y28V] are within error of each other in abundance fitness: -0.13 ± 0.11 for the first, -0.144 ± 0.095 for the second.

HTCEKCSTSIANQAVRIQEGRYRHPGCYTCADCGLCLKMRGHFWVGDELYCEKHAR [N36C] and HTCEKCSTSIANQAVRIQEGRYRHPGCYTCADCGLFLKMRGHFWVGDELYCEKHAR [N36F] are within error of each other in abundance fitness: -0.116 ± 0.083 for the first, -0.189 ± 0.093 for the second.

First: HTCEKCSTSIANQAVRIQEGRIRHPGCYTCADCGLNLKMRGHFWVGDELYCEKHAR [Y22I]
Second: HTCEKCSTSIANQAVRIQEGRLRHPGCYTCADCGLNLKMRGHFWVGDELYCEKHAR [Y22L]
The abundance fitness of the first is lower: -0.691 ± 0.23 for the first, -0.349 ± 0.087 for the second.

HTCEKCSTSIANQAVRIQEGRNRHPGCYTCADCGLNLKMRGHFWVGDELYCEKHAR [Y22N] and HTCEKCSTSIANQAVRIQEGRKRHPGCYTCADCGLNLKMRGHFWVGDELYCEKHAR [Y22K] are within error of each other in abundance fitness: -0.32 ± 0.1 for the first, -0.311 ± 0.14 for the second.

First: HTCEKCSTSIANQAVRIQEGRYRHPGCYTCADCGLNLKMRGHFWVNDELYCEKHAR [G46N]
Second: HTCEKCSTSIANQAVRIQEGRYRHPGCYTCADCGLNLKMRGHFWVFDELYCEKHAR [G46F]
The abundance fitness of the first is higher: 0.112 ± 0.13 for the first, -0.624 ± 0.24 for the second.

Going from HTCEKCSTSQANQAVRIQEGRYRHPGCYTCADCGLNLKMRGHFWVGDELYCEKHAR [I10Q] to HTCEKCSTSHANQAVRIQEGRYRHPGCYTCADCGLNLKMRGHFWVGDELYCEKHAR [I10H], the abundance fitness falls from -0.242 ± 0.083 to -0.735 ± 0.17.

HTCEKCSTSCANQAVRIQEGRYRHPGCYTCADCGLNLKMRGHFWVGDELYCEKHAR [I10C] and HTCEKCSTSVANQAVRIQEGRYRHPGCYTCADCGLNLKMRGHFWVGDELYCEKHAR [I10V] are within error of each other in abundance fitness: -0.062 ± 0.09 for the first, -0.187 ± 0.057 for the second.

Compared with HTCEKLSTSIANQAVRIQEGRYRHPGCYTCADCGLNLKMRGHFWVGDELYCEKHAR [C6L], HTCEKCSTSIANQAVRIQEGRYRHPGCYTCADCGLNLKMRGHFWVGDILYCEKHAR [E48I] is higher in abundance fitness: -0.597 ± 0.082 for the first, -0.174 ± 0.11 for the second.

HTCEKCSTSIANQAVRIQEGRYRHPGCYTCADCGLNLKMRGHFWVGDLLYCEKHAR [E48L] and HTCEKCSTSIANQAVRIQEGRYRHPGCYTCADCGLNLKMRGHFWVGDYLYCEKHAR [E48Y] are within error of each other in abundance fitness: -0.082 ± 0.09 for the first, -0.235 ± 0.075 for the second.

First: HTCEKCSTSIANQAVRIQEGRYRHPGCYTCADCGLNLKMRGHFWPGDELYCEKHAR [V45P]
Second: HTCEKCSTSIANQAVRIQRGRYRHPGCYTCADCGLNLKMRGHFWVGDELYCEKHAR [E19R]
The abundance fitness of the first is lower: -0.361 ± 0.12 for the first, -0.12 ± 0.064 for the second.

Compared with HTCEKCSTSIANQAVRIQEGRYRHPGCYTCADCGLNLKLRGHFWVGDELYCEKHAR [M39L], HTCEKCSTSIANQAVRIQEGRYRHPGCYTCADCGLNLKPRGHFWVGDELYCEKHAR [M39P] is higher in abundance fitness: -0.123 ± 0.075 for the first, 0.422 ± 0.11 for the second.

Compared with HTCEKCSTSIANQAVRIQEGRYRHPGCYTCADCGLNLKFRGHFWVGDELYCEKHAR [M39F], HTCEKCSTSIANQAVRIQEGRYRHPGCYTCADCGLNLKTRGHFWVGDELYCEKHAR [M39T] is higher in abundance fitness: -0.186 ± 0.069 for the first, 0.173 ± 0.086 for the second.

Work on HTCEKCSTSIANQAVRIQEGRYRHPGCYTCADCKLNLKMRGHFWVGDELYCEKHAR [G34K] yielded an abundance fitness of 0.073 ± 0.089.
